The record followed here is publication PMC6139572.

Assay [1] addresses myosin S2Δ, the first 126 amino acids of myosin sub-fragment 2 (rat heart) (rat). Put plainly: MST; as a2 but 180 mmol/liter KCl; pH 7; 30 °C.
The target in assay [2] is isolated native thin filaments (UniProt P68032). In words: co-sedimentation; high-velocity co-sedimentation of C1mC2 constructs with isolated native thin filaments; performed as described in ref. 15.
Assay [3] addresses myosin S2Δ, the first 126 amino acids of myosin sub-fragment 2 (rat heart) (rat). In words: MST; as a2 (pH 7, 50 mmol/liter KCl); 25 °C.
Assay [4] addresses isolated native thin filaments (UniProt P68032).
Assay [5] concerns the target myosin S2Δ, the first 126 amino acids of myosin sub-fragment 2 (rat heart) (rat). In words: MST; as a2 (pH 7, 50 mmol/liter KCl); 30 °C.
The target is the same in assay [6]. Put plainly: MST; Monolith NT.115; 100 nmol/liter Alexa 647–myosin S2Δ fixed, cMyBP-C construct titrated; 20 mmol/liter MOPS pH 7, 1 mmol/liter EDTA, 50 mmol/liter KCl, 1 mmol/liter DTT, 0.05% Tween 20; 21 °C.
Assay [7] has the same target. Put plainly: MST; as a2 (pH 7, 50 mmol/liter KCl); biphasic binding curve of Fig. S3, the temperature of the curve is not given.

Usually Kd stands for a measure of binding affinity in units of concentration. High values mean a looser complex, low ones a tighter complex. As to “C1mC2, unphosphorylated N-terminal fragment of rat cardiac myosin-binding protein-C containing the Ig-domains C1 and C2 and the intervening m-domain (domain or fragment)”, the Kd in assay [1] was 364 µM; in assay [2], 23 µM; in assay [3], 58.5 µM; in assay [5], 21.3 µM; in assay [6], 106 µM. The same substance gave an isometric force of demembranated rat ventricular trabeculae in relaxing solution (pCa 9) with 40 μmol/liter C1mC2, as percent of that during full Ca2+ activation in assay [4] of 57%. The substance also yielded a Kd of the additional low-affinity binding interaction in assay [7] of 400 µM.
Regarding “PKA tris-phosphorylated C1mC2 of rat cardiac myosin-binding protein-C (domain or fragment)”, the Kd in assay [2] was 57 µM.
